Test results published in article PMC10514136, “Peptide-conjugated antimiRs improve myotonic dystrophy type 1 phenotypes by promoting endogenous MBNL1 expression” (Molecular Therapy. Nucleic Acids, 2023).
Values joined by “and” are separate entries in the source; they are usually repeats but may differ in a detail not shown here. Identical values can stand only once.

Experiments:
Format in all cases: in vivo, mouse
Atp2a1 exon 22 = test: Alternative splicing of Atp2a1 exon 22 in muscle by RT-PCR (PSI, splice recovery); settings: HSALR mice, individual mice; for Percentage spliced-in (PSI) Atp2a1 Gast: 9.2 mg/kg (mean) i.v. x3, day 45, gastrocnemius; for Percentage spliced-in (PSI) Atp2a1 Quads: 9.2 mg/kg (mean) i.v. x3, day 45, quadriceps
Procedure: Total RNA from murine gastrocnemius and quadriceps muscle was isolated using the miRNeasy Mini Kit (QIAGEN, Hilden, Germany) according to the manufacturer’s instructions. One microgram of RNA was digested with DNase I (Invitrogen, Carlsbad, CA) and reverse transcribed with SuperScript II (Invitrogen) using random hexanucleotides. For subsequent PCR reactions, 20 ng of cDNA was used with GoTaq polymerase (Promega). Specific primers were used to analyze the alternative splicing of Nfix, Atp2a1, and Clcn1 in mouse samples (both muscles). Gapdh levels established the endogenous reference levels using 0.2 ng of cDNA. PCR products were separated on a 2% agarose gel and quantified using ImageJ software (NIH, Bethesda, MD). PSR index was defined as value%SI minus X¯%DSI , divided by X¯%DSI minus X¯%HSI (SI, splicing inclusion of each sample; DSI, disease splicing inclusion; HSI, healthy splicing inclusion). Overall, PSR indicates the amount in both muscles analyzed. Primer sequences and exons analyzed are available in Cerro-Herreros et al.[20] In the case of off-targets, interleukins, and muscle regeneration marker Mstn-1, primers sequences are available in Table S5. We used 1 ng of mouse tissue cDNA as a template for multiplex qPCR using the QuantiFast Probe PCR Kit reagent. Commercial TaqMan probes (QIAGEN) were used for mouse (Mbnl1 and Mbnl2; FAM-labeled probes) and reference (GAPDH; MAX-labeled probe) genes. Results were normalized to Gapdh endogenous gene expression.
We used homozygous transgenic HSA^LR (line 20 b) mice,[90] which were kindly provided by Dr Thornton (Rochester, NY) and were housed and bred in our animal facility. Experimental groups were FVB as healthy control and HSA^LR treated with a scrambled ON (SC) and PBS as negative controls, and HSA^LR mice treated with all six experimental CPP-PMOs. The mice were randomly allocated to the different treatments as follows: in each cage, each mouse was ear-marked as it was taken out, and each mouse was then assigned to a different treatment. […] Mice were sacrificed 45 days after the first injection and the tissues of interest were frozen in liquid nitrogen for the molecular and histological assays. All the mice used in this study ranged from 5 to 5.5 months of age and all were males.

HSALR mice = test: White blood cell differential count; settings: mouse, in vivo, iv, 9.2 mg/kg
From the text: Mouse handling and experimental procedures followed the European law regarding laboratory animal care and experimentation (2003/65/C.E.) and were approved by Conselleria de Agricultura, […] (reference no. A1539961490857). We used homozygous transgenic HSA^LR (line 20 b) mice,[90] which were kindly provided by Dr Thornton (Rochester, NY) and were housed and bred in our animal facility. […] The mice were randomly allocated to the different treatments as follows: in each cage, each mouse was ear-marked as it was taken out, and each mouse was then assigned to a different treatment. Animals were injected biweekly intravenously with 150 μL of 1× PBS vehicle (controls; […] Mice were sacrificed 45 days after the first injection and the tissues of interest were frozen in liquid nitrogen for the molecular and histological assays. All the mice used in this study ranged from 5 to 5.5 months of age and all were males. At 45 days post treatment, animals were sacrificed, and blood was collected by cardiac puncture exsanguination with K3-EDTA (Sarstedt, Nümbrecht, Germany). The samples were analyzed by Laboratorios Montoro Botella (Valencia, Spain).

[1] = ELISA determination of antimiR conjugate concentrations in tissues; settings: HSALR mice, 9.2 mg/kg (mean) i.v. x3, day 45, hybridization ELISA, background subtracted, individual mice
Procedure: Custom ELISA-based measurements of antimiR conjugate concentrations in brain, kidney, liver, heart, gastrocnemius, and quadriceps from treated HSA^LR mice were performed as described in Burki et al.,[89] using the following phosphorothioate probes: for miR-218 (5′ → 3′) [DIG] T∗T∗G∗T∗G∗C∗T∗TGATCTA∗A∗C∗C∗A∗T∗G∗T [BIO]; for miR-23b (5′ → 3′) [BIO] A∗T∗C∗A∗C∗A∗T∗TGCCAGG∗G∗A∗T∗T∗A∗C∗C [DiG] double-labeled with digoxigenin (DIG) and biotin (BIO). In all cases, a control sample was used to subtract the background (HSA^LR treated with PBS for 9b2 and 9b2-KC ONs; HSA^LR treated with Scramble for 6aKC ONs).
Mouse handling and experimental procedures followed the European law regarding laboratory animal care and experimentation (2003/65/C.E.) and were approved by Conselleria de Agricultura, Generalitat Valenciana (reference no. A1539961490857). We used homozygous transgenic HSA^LR (line 20 b) mice,[90] which were kindly provided by Dr Thornton (Rochester, NY) and were housed and bred in our animal facility. Experimental groups were FVB as healthy control and HSA^LR treated with a scrambled ON (SC) and PBS as negative controls, and HSA^LR mice treated with all six experimental CPP-PMOs. The mice were randomly allocated to the different treatments as follows: in each cage, each mouse was ear-marked as it was taken out, and each mouse was then assigned to a different treatment. Animals were injected biweekly intravenously with 150 μL of 1× PBS vehicle (controls; HSA^LR n = 7 and FVB n = 6) or 150 μL of a solution 1.875 mg/mL of the test CPP-PMOs corresponding to an average dose of 9.2 mg/kg (HSA^LR mice: SC n = 5, 9b2-218 n = 5, 9b2-23b n = 5, […] n = 5, […] n = 5, 6aKC-218 n = 5, and 6aKC-23b n = 5; see Table S6 for precise dosing). Mice were sacrificed 45 days after the first injection and the tissues of interest were frozen in liquid nitrogen for the molecular and histological assays. All the mice used in this study ranged from 5 to 5.5 months of age and all were males.

Substance | Percentage spliced-in (PSI) Atp2a1 Gast (Atp2a1 exon 22) | Percentage spliced-in (PSI) Atp2a1 Quads (Atp2a1 exon 22) | Basophils (HSALR mice) | Eosinophils (HSALR mice) | Lymphocytes (HSALR mice) | Monocytes (HSALR mice) | Seg cells (HSALR mice) | CPP-PMO concentration (pM), Brain ([1]; 9.2 mg/kg) | CPP-PMO concentration (pM), Gastrocnemius ([1]; 9.2 mg/kg) | CPP-PMO concentration (pM), Heart ([1]; 9.2 mg/kg) | CPP-PMO concentration (pM), Kidney ([1]; 9.2 mg/kg) | CPP-PMO concentration (pM), Liver ([1]; 9.2 mg/kg) | CPP-PMO concentration (pM), Quadriceps ([1]; 9.2 mg/kg) | CPP-PMO concentration (pM), Brain [1] [pM]
6aKC-23b (antisense GGUAAUCCCUGGCAAUGUGAU; all phosphorodiamidate morpholino (PMO), T or U not given here; Pip6aKC peptide conjugated) | 14.22% and 26.08% and 16.73% and 17.96% and 14.74% | 29.81% and 23.38% and 17.76% and 24.03% and 33.87% | 0 ± 0% | 2,40 ± 1,341% | 47,80 ± 12,133% | 17,60 ± 7,537% | 31,2 ± 13,142% | 0.83 pM and 9.49 pM and 11.43 pM and 25.59 pM and 4.02 pM | 93.86 pM and 1846.67 pM and 1209.72 pM and 472.26 pM and 199.58 pM | 1789.14 pM and 954.01 pM and 1508.23 pM and 1701.45 pM | 174345.23 pM and 110334.18 pM and 239168.85 pM and 16740.44 pM and 230939.23 pM | 4615.98 pM and 9209.58 pM and 10333.80 pM and 76.40 pM and 8623.71 pM | 72.30 pM and 93.71 pM and 165.91 pM and 28.58 pM and 1.72 pM | 
6aKC-218 (antisense ACAUGGUUAGAUCAAGCACAA; all phosphorodiamidate morpholino (PMO), T or U not given here; Pip6aKC peptide conjugated) | 14.70% and 11.51% and 10.78% and 31.20% and 12.62% | 21.08% and 26.96% and 31.16% and 9.84% and 26.51% | 0 ± 0% | 0,60 ± 0,894% | 57,20 ± 12,357% | 21,40 ± 7,127% | 20,4 ± 6,189% |  | 3105.34 pM and 4126.64 pM | 220.63 pM and 8031.17 pM and 1672.26 pM | 807303.00 pM and 163863.50 pM and 282189.80 pM and 288519.00 pM and 763252.10 pM | 11820.61 pM and 1738.96 pM and 6547.20 pM and 6702.77 pM and 6452.86 pM | 56.37 pM and 3449.73 pM and 180.55 pM | 5.54
9b2-23b (antisense GGUAAUCCCUGGCAAUGUGAU; all phosphorodiamidate morpholino (PMO), T or U not given here; Pip9b2 peptide conjugated) | 52.69% and 18.37% and 16.01% and 11.16% and 23.52% | 98.27% and 99.53% and 75.32% and 25.61% and 36.45% | 0,2 ± 0,447% | 6,20 ± 2,588% | 65,40 ± 6,189% | 6,20 ± 2,683% | 21 ± 3,391% | 84.29 pM and 5.89 pM and 3.33 pM | 1173.05 pM and 672.99 pM and 96.96 pM | 458.72 pM and 70.02 pM and 540.73 pM | 417329.90 pM and 445161.13 pM and 596014.00 pM | 14705.39 pM and 13935.38 pM and 16995.86 pM | 664.60 pM and 444.65 pM and 237.24 pM | 
